Measurements taken from article PMC3705450.
Numbering of substitutions follows the chain as printed. Like-named read-outs stand apart in the source and are kept apart here.

What was measured:
Assay in all cases: EMSA
[1] = biological target: T1, LuxR (Vibrio harveyi, UniProt P21308 1-205)
T1 sequence: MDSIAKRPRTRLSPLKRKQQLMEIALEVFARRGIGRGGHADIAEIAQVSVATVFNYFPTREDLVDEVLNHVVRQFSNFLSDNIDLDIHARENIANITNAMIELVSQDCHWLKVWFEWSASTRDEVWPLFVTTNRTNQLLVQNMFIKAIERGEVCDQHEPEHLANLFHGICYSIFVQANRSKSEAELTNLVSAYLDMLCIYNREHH

[2] = biological target: T2, LuxR T52M/I24V (Vibrio harveyi, UniProt P21308 1-205, T52M;I24V)
T2 sequence: T1 sequence with I24V, T52M

[3] = biological target: T3, LuxR L139P (Vibrio harveyi, UniProt P21308 1-205, L139P)
T3 sequence: T1 sequence with L139P

[4] = biological target: T4, LuxR N55I (Vibrio harveyi, UniProt P21308 1-205, N55I)
T4 sequence: T1 sequence with N55I

[5] = biological target: T4, LuxR N55I; remark: listed apart in the source
[6] = biological target: T1, LuxR; remark: listed apart in the source
[7] = biological target: T1, LuxR; remark: listed apart in the source
[8] = biological target: T2, LuxR T52M/I24V; remark: listed apart in the source
[9] = biological target: T1, LuxR; remark: listed apart in the source
[10] = biological target: T1, LuxR; remark: listed apart in the source

B1: P05222 site 31mer (dsDNA)
DNA 1: CTAGTACTGACAAAAAAGTTAATATTTTGTT
DNA 2: AACAAAATATTAACTTTTTTGTCAGTACTAG
Kd [1]: 0.7 nM
Kd [2]: 56.6 nM

B2: PluxC site 3 (dsDNA)
DNA 1: TTATTTAAATGATATAAATATAAATAACATCA
DNA 2: TGATGTTATTTATATTTATATCATTTAAATAA
Kd [1]: 0.6 nM

B3: PluxC site 2 (dsDNA)
DNA 1: ACTAATTATAAATAAATCAAACTATAATTAGA
DNA 2: TCTAATTATAGTTTGATTTATTTATAATTAGT
binding result [3]: binds
Kd [1]: 103 nM
binding result [4]: no binding

B4: PluxC site 1 (dsDNA)
DNA 1: TTACTTATTTATAGTGTTACAAATAACATTA
DNA 2: TAATGTTATTTGTAACACTATAAATAAGTAA
binding result [5]: binds
binding result [3]: binds
binding result [6]: binds
binding result [2]: no binding

B5: P05222 site G to T + T to C (dsDNA)
DNA 1: GTGCAACAAAATATTGACTTTTTTGTCAGTAAGGATCCGGTGATTG
DNA 2: CAATCACCGGATCCTTACTGACAAAAAAGTCAATATTTTGTTGCAC
binding result [7]: binds
binding result [8]: binds

B6: P05222 28 bp (dsDNA)
DNA 1: CTAGTACTGACAAAAAAGTTAATATTTT
DNA 2: AAAATATTAACTTTTTTGTCAGTACTAG
binding result [9]: binds

B7: aphA promoter BS* randomized 31mer (dsDNA)
DNA 1: TTTACGTTACTTGTTGGTAAATTTTATATAT
DNA 2: ATATATAAAATTTACCAACAAGTAACGTAAA
binding result [10]: no binding
